# B1: 041417-B06 (protein)
# chain: MALPVTALLLPLALLLHAARPEVQLQQSGPGLVKPSQTLSLTCAISGDSVLSNSDTWNWIRQSPSRGLEWLGRTYHRSTWYDDYASSVRGRVSINVDTSKNQYSLQLNAVTPEDTGVYYCARDRLQDGNSWSDAFDVWGQGTMVTVSSLEIQNPDPAVYQLRDSKSSDKSVCLFTDFDSQTNVSQSKDSDVYITDKCVLDMRSMDFKSNSAVAWSNKSDFACANAFNNSIIPEDTFFPSSDVPCDVKLVEKSFETDTNLNFQNLSVIGFRILLLKVAGFNLLMTLRLWSSRAKRSGSGVKQTLNFDLLKLAGDVESNPGPTSMDWIWRILFLVGAATGAHSFEQSALTQPASVSGSPGQSITISCTGTSSDVGGYNYVSWYQQHPGKAPKLMIYDVSNRPSGVSNRFSGSKSGNTASLTISGLQAEDEADYYCSSYTSSSTLVYVFGTGTKVTVLTREDLKNVFPPEVAVFEPSKAEIAHTQKATLVCLATGFYPDHVELSWWVNGKEVHSGVCTDPQPLKEQPALNDSRYCLSSRLRVSATFWQNPRNHFRCQVQFYGLSENDEWTQDRAKPVTQIVSAEAWGRADCGITSASYHQGVLSATILYEILLGKATLYAVLVSALVLMAMVKRKDSRGRAKRSGSGATNFSLLKQAGDVEENPGPSRGHMTEYKPTVRLATRDDVPRAVRTLAAAFADYPATRHTVDPDRHIERVTELQELFLTRVGLDIGKVWVADDGAAVAVWTTPESVEAGAVFAEIGPRMAELSGSRLAAQQQMEGLLAPHRPKEPAWFLATVGVSPDHQGKGLGSAVVLPGVEAAERAGVPAFLETSAPRNLPFYERLGFTVTADVEVPEGPRTWCMTRKPGA
# B2: 030917-Z01 (protein)
# chain: MALPVTALLLPLALLLHAARPEIVLTQSPGTLSLSPGERATLSCRASSSVPYIHWYQQKPGQAPRLLIYATSALASGIPDRFSGSGSGTDFTLTISRLEPEDFAVYYCQQWLSNPPTFGQGTKLELKRLEDLKNVFPPEVAVFEPSKAEIAHTQKATLVCLATGFYPDHVELSWWVNGKEVHSGVCTDPQPLKEQPALNDSRYCLSSRLRVSATFWQNPRNHFRCQVQFYGLSENDEWTQDRAKPVTQIVSAEAWGRADCGITSASYHQGVLSATILYEILLGKATLYAVLVSALVLMAMVKRKDSRGRAKRSGSGATNFSLLKQAGDVEENPGPTSMDWIWRILFLVGAATGAHSFEEVQLVQSGAEVKKPGESLKLSCKGSGRTFTSYNMHWVRQMPGKGLEWMGAIYPLTGDTSYNQKSKLQVTISADKSISTAYLQWSSLKASDTAMYYCARSTYVGGDWQFDVWGKGTTVTVSSTRIQNPDPAVYQLRDSKSSDKSVCLFTDFDSQTNVSQSKDSDVYITDKCVLDMRSMDFKSNSAVAWSNKSDFACANAFNNSIIPEDTFFPSSDVPCDVKLVEKSFETDTNLNFQNLSVIGFRILLLKVAGFNLLMTLRLWSSRAKRSGSGVKQTLNFDLLKLAGDVESNPGPSRGHMTEYKPTVRLATRDDVPRAVRTLAAAFADYPATRHTVDPDRHIERVTELQELFLTRVGLDIGKVWVADDGAAVAVWTTPESVEAGAVFAEIGPRMAELSGSRLAAQQQMEGLLAPHRPKEPAWFLATVGVSPDHQGKGLGSAVVLPGVEAAERAGVPAFLETSAPRNLPFYERLGFTVTADVEVPEGPRTWCMTRKPGA
# B3: 012617-S04 (protein)
# chain: MALPVTALLLPLALLLHAARPLEGKPIPNPLLGLDSTGSGEDLKNVFPPEVAVFEPSKAEIAHTQKATLVCLATGFYPDHVELSWWVNGKEVHSGVCTDPQPLKEQPALNDSRYCLSSRLRVSATFWQNPRNHFRCQVQFYGLSENDEWTQDRAKPVTQIVSAEAWGRADCGITSASYHQGVLSATILYEILLGKATLYAVLVSALVLMAMVKRKDSRGRAKRSGSGATNFSLLKQAGDVEENPGPTSMALPVTALLLPLALLLHAARPDIQMTQSPSSLSASVGDRVTITCRASSSVSYMHWYQQKPGKAPKPLIYAPSNLASGVPSRFSGSGSGTDFTLTISSLQPEDFATYYCQQWSFNPPTFGQGTKVEIKRGGGGSGGGGSGGGGSEVQLVESGGGLVQPGGSLRLSCAASGYTFTSYNMHWVRQAPGKGLEWVGAIYPGNGDTSYNQKFKGRFTISVDKSKNTLYLQMNSLRAEDTAVYYCARVVYYSNSYWYFDVWGQGTLVTVSSTREQKLISEEDGSGIQNPDPAVYQLRDSKSSDKSVCLFTDFDSQTNVSQSKDSDVYITDKCVLDMRSMDFKSNSAVAWSNKSDFACANAFNNSIIPEDTFFPSSDVPCDVKLVEKSFETDTNLNFQNLSVIGFRILLLKVAGFNLLMTLRLWSSRAKRSGSGVKQTLNFDLLKLAGDVESNPGPSRGHMTEYKPTVRLATRDDVPRAVRTLAAAFADYPATRHTVDPDRHIERVTELQELFLTRVGLDIGKVWVADDGAAVAVWTTPESVEAGAVFAEIGPRMAELSGSRLAAQQQMEGLLAPHRPKEPAWFLATVGVSPDHQGKGLGSAVVLPGVEAAERAGVPAFLETSAPRNLPFYERLGFTVTADVEVPEGPRTWCMTRKPGA
# B4: 031417-L06 (protein)
# chain: MALPVTALLLPLALLLHAARPQIVLSQSPAILSASPGEKVTMTCRASSSVSYMHWYQQKPGSSPKPWIYATSNLASGVPARFSGSGSGTSYSFTISRVEAEDAATYYCQQWTFNPPTFGGGTRLEIKRTVAALEDLKNVFPPEVAVFEPSKAEIAHTQKATLVCLATGFYPDHVELSWWVNGKEVHSGVCTDPQPLKEQPALNDSRYCLSSRLRVSATFWQNPRNHFRCQVQFYGLSENDEWTQDRAKPVTQIVSAEAWGRADCGITSASYHQGVLSATILYEILLGKATLYAVLVSALVLMAMVKRKDSRGRAKRSGSGATNFSLLKQAGDVEENPGPTSMDWIWRILFLVGAATGAHSFEQAYLQQSGAELVRPGASVKMSCKASGYTFTSYNMHWVKQTPRQGLEWIGGIYPGNGDTSYNQKFKGKATLTVGKSSSTAYMQLSSLTSEDSAVYFCARYDYNYAMDYWGQGTSVTVSSASTRIQNPDPAVYQLRDSKSSDKSVCLFTDFDSQTNVSQSKDSDVYITDKCVLDMRSMDFKSNSAVAWSNKSDFACANAFNNSIIPEDTFFPSSDVPCDVKLVEKSFETDTNLNFQNLSVIGFRILLLKVAGFNLLMTLRLWSSRAKRSGSGVKQTLNFDLLKLAGDVESNPGPSRGHMTEYKPTVRLATRDDVPRAVRTLAAAFADYPATRHTVDPDRHIERVTELQELFLTRVGLDIGKVWVADDGAAVAVWTTPESVEAGAVFAEIGPRMAELSGSRLAAQQQMEGLLAPHRPKEPAWFLATVGVSPDHQGKGLGSAVVLPGVEAAERAGVPAFLETSAPRNLPFYERLGFTVTADVEVPEGPRTWCMTRKPGA
# B5: 031417-N06 (protein)
# chain: MALPVTALLLPLALLLHAARPQIVLSQSPAILSASPGEKVTMTCRASSSVSYMHWYQQKPGSSPKPWIYATSNLASGVPARFSGSGSGTSYSFTISRVEAEDAATYYCQQWTFNPPTFGGGTRLEIKRTVAALEIQNPDPAVYQLRDSKSSDKSVCLFTDFDSQTNVSQSKDSDVYITDKCVLDMRSMDFKSNSAVAWSNKSDFACANAFNNSIIPEDTFFPSSDVPCDVKLVEKSFETDTNLNFQNLSVIGFRILLLKVAGFNLLMTLRLWSSRAKRSGSGVKQTLNFDLLKLAGDVESNPGPTSMDWIWRILFLVGAATGAHSFEQAYLQQSGAELVRPGASVKMSCKASGYTFTSYNMHWVKQTPRQGLEWIGGIYPGNGDTSYNQKFKGKATLTVGKSSSTAYMQLSSLTSEDSAVYFCARYDYNYAMDYWGQGTSVTVSSASTREDLKNVFPPEVAVFEPSKAEIAHTQKATLVCLATGFYPDHVELSWWVNGKEVHSGVCTDPQPLKEQPALNDSRYCLSSRLRVSATFWQNPRNHFRCQVQFYGLSENDEWTQDRAKPVTQIVSAEAWGRADCGITSASYHQGVLSATILYEILLGKATLYAVLVSALVLMAMVKRKDSRGRAKRSGSGATNFSLLKQAGDVEENPGPSRGHMTEYKPTVRLATRDDVPRAVRTLAAAFADYPATRHTVDPDRHIERVTELQELFLTRVGLDIGKVWVADDGAAVAVWTTPESVEAGAVFAEIGPRMAELSGSRLAAQQQMEGLLAPHRPKEPAWFLATVGVSPDHQGKGLGSAVVLPGVEAAERAGVPAFLETSAPRNLPFYERLGFTVTADVEVPEGPRTWCMTRKPGA
# B6: 031517-W03 (protein)
# chain: MALPVTALLLPLALLLHAARPLEGKPIPNPLLGLDSTGSGEDLKNVFPPEVAVFEPSKAEIAHTQKATLVCLATGFYPDHVELSWWVNGKEVHSGVCTDPQPLKEQPALNDSRYCLSSRLRVSATFWQNPRNHFRCQVQFYGLSENDEWTQDRAKPVTQIVSAEAWGRADCGITSASYHQGVLSATILYEILLGKATLYAVLVSALVLMAMVKRKDSRGRAKRSGSGATNFSLLKQAGDVEENPGPTSMALPVTALLLPLALLLHAARPEIVLTQSPSSLSASVGDRVTITCRASSSLSFMHWYQQKPGKAPKPWIYATSNLASGVPSRFSGSGSGTDYTLTISSLQPEDFATYFCHQWSSNPLTFGGGTKVEIKGGGGSGGGGSGGGGSQVQLVQSGAEVKKPGASVKVSCKASGYTFTSYNMHWVRQAPGQRLEWIGAIYPGNGDTSYNQKFKGRVTVTRDTSANTAYMELSSLKSEDTAVYYCARSHYGSNYVDYFDYWGQGTLVTVSSTREQKLISEEDGSGIQNPDPAVYQLRDSKSSDKSVCLFTDFDSQTNVSQSKDSDVYITDKCVLDMRSMDFKSNSAVAWSNKSDFACANAFNNSIIPEDTFFPSSDVPCDVKLVEKSFETDTNLNFQNLSVIGFRILLLKVAGFNLLMTLRLWSSRAKRSGSGVKQTLNFDLLKLAGDVESNPGPSRGHMTEYKPTVRLATRDDVPRAVRTLAAAFADYPATRHTVDPDRHIERVTELQELFLTRVGLDIGKVWVADDGAAVAVWTTPESVEAGAVFAEIGPRMAELSGSRLAAQQQMEGLLAPHRPKEPAWFLATVGVSPDHQGKGLGSAVVLPGVEAAERAGVPAFLETSAPRNLPFYERLGFTVTADVEVPEGPRTWCMTRKPGA
# System: target antigen-expressing cell line
# Assay: Jurkat NFAT-GFP assay, coculture with target cell lines expressing the respective target antigen (summary Table 10A)
# Format: cell-based, human
# Set-up: key: The signs +/−, +, 2+ etc. after the name of the cell lines indicate the relative degree of positivity on the Jurkat-NFAT-GFP assay as measured by the % GFP positive cells; +: relative degree of positivity on the Jurkat-NFAT-GFP assay as measured by the % GFP positive cells; 2+: relative degree of positivity on the Jurkat-NFAT-GFP assay as measured by the % GFP positive cells
# Details: relative % GFP positive cells; for NFAT-GFP ASSAY Positive Cell lines: RAJI: SIR-expressing Jurkat-NFAT-GFP cells cocultured with RAJI; for NFAT-GFP ASSAY Positive Cell lines: NALM6: SIR-expressing Jurkat-NFAT-GFP cells cocultured with NALM6
# Procedure, shortened: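 Read-out: % GFP+ cells by FACS. SIR-transduced, puromycin-selected Jurkat NFAT-GFP (IL-2 promoter reporter) cocultured ~4–18 h with target line, E:T ~1:2; parental cells as control; graded +/−, +, 2+ relative to parental.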
Molecule,NFAT-GFP ASSAY Positive Cell lines: RAJI,NFAT-GFP ASSAY Positive Cell lines: NALM6
B1,RAJI (+/−),–
B2,"RAJI (2+), NALM6",(+/−)
B3,–,(+/−)
B4,RAJI (+/−),–
B5,–,(+)
B6,RAJI (+/−),–

# Source: US12269859B2, “Synthetic immune receptors and methods of use thereof” (Angeles Therapeutics, Inc., priority 2016, dated 2025)
